The target of data set [1] is GST-TDP (101-261) (human, UniProt Q13148 101-261). Put plainly: CD titration.
The target of data set [2] is His-TDP (101-261) (human, UniProt Q13148 101-261). Put plainly: lysine acetylation footprinting MS.
His-TDP (101-261), sequence (Q13148 101-261): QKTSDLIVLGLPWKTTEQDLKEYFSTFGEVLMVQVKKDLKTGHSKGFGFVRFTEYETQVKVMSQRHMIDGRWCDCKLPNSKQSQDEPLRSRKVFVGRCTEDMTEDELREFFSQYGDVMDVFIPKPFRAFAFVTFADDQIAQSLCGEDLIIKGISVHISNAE

GST-TDP (101-261), sequence (Q13148 101-261): as above

Consider UGUGUGUGUGUG (ssRNA) [(UG)6], for which the binding result in data set [1] and in data set [2] was “binds” each time.

Source of the values: article PMC3643599.
